Experimental data as given in patent US20240002482A1 (BEIJING SOLOBIO GENETECHNOLOGY, published 2024).

B1: anti-PcrV antibody 7B1 (antibody, V domains shown)
VH: EVQLLESGGGLVQPGGSLRLSCTASGFTFSDNYMSWVRQAPGKGLDWVSVISESGGSTNYADSVKGRFSTSRDNSKSTLYLDMNSLRAEDTAIYYCAKGRFSTLSSHFFRAVYGMDVWGQGTAVTVSS
VL: DIQLTQSPSSLSASVGDRVTITCRASQGISSYLAWYQQKPGKAPKLLIYAASTLQSGVPSRFSGSGSGTDFTLTISSLQPEDFATYYCQQLSSYPLTFGGGTKVEIK
notes: Monospecific antibody, optimized from the 13-42 lead
B2: anti-PcrV/anti-Psl bispecific antibody STS7B11201S (bispecific antibody)
heavy: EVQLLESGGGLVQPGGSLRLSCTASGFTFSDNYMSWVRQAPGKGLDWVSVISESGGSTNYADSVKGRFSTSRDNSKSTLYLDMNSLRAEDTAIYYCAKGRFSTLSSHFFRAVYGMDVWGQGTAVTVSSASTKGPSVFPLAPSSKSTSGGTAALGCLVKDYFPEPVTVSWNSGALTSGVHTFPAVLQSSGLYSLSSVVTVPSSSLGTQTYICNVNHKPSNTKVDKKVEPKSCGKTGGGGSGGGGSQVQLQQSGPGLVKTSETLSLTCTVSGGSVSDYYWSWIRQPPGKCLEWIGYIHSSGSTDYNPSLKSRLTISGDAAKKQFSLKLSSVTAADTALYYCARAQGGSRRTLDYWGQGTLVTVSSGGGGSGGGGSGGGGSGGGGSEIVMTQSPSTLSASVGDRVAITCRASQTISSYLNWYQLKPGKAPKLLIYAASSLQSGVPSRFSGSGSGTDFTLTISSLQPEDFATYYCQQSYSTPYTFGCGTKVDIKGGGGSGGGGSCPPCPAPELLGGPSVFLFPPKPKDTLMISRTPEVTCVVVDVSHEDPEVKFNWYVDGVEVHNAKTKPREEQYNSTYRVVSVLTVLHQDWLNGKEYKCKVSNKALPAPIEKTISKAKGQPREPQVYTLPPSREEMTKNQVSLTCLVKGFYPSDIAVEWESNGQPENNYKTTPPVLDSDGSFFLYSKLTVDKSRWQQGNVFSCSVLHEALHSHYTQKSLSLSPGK
light: DIQLTQSPSSLSASVGDRVTITCRASQGISSYLAWYQQKPGKAPKLLIYAASTLQSGVPSRFSGSGSGTDFTLTISSLQPEDFATYYCQQLSSYPLTFGGGTKVEIKRTVAAPSVFIFPPSDEQLKSGTASVVCLLNNFYPREAKVQWKVDNALQSGNSQESVTEQDSKDSTYSLSSTLTLSKADYEKHKVYACEVTHQGLSSPVTKSFNRGEC
notes: also called STS7B112015
B3: anti-PcrV/anti-Psl bispecific antibody STS7B159S (bispecific antibody)
heavy: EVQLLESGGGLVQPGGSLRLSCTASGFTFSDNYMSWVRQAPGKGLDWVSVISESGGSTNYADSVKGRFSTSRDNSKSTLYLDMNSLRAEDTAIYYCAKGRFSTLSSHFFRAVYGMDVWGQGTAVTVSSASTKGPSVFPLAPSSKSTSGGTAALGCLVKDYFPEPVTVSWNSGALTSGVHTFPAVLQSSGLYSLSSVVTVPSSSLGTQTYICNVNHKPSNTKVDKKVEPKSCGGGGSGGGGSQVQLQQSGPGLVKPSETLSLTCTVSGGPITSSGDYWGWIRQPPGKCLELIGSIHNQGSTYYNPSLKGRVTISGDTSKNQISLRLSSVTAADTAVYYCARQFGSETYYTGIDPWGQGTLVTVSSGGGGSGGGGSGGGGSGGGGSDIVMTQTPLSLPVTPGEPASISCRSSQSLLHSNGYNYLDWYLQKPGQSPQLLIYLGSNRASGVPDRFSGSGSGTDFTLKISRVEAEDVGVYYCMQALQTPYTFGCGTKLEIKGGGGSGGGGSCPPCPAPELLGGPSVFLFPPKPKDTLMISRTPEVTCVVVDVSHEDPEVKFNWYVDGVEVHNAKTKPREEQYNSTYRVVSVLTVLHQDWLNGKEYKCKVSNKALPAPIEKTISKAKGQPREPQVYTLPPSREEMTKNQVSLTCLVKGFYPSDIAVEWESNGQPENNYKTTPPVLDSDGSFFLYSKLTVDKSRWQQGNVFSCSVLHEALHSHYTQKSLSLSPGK
light: B2 light
notes: also called STS7B1595
B4: anti-PcrV/anti-Psl bispecific antibody STS7B15925M (bispecific antibody)
heavy: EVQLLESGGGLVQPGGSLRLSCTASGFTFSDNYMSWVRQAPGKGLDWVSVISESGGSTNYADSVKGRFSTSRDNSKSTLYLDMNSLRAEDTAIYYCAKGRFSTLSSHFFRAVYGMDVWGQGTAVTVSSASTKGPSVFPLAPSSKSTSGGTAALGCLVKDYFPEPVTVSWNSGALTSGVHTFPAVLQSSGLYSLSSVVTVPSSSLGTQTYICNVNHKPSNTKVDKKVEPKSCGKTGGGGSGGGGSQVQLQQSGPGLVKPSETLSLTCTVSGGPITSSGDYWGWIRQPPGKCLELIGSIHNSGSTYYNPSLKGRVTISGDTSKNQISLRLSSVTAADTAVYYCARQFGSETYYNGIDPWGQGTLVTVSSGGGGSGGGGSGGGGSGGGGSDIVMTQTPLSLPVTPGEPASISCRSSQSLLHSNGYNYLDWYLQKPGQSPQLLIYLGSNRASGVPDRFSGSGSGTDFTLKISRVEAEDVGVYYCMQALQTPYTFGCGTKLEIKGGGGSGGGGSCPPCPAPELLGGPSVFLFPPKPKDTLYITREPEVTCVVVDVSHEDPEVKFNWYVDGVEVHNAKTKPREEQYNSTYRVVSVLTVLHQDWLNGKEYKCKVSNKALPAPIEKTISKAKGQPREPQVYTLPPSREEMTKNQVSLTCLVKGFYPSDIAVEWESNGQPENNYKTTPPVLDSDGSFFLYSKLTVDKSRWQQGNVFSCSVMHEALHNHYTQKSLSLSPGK
light: B2 light
notes: Chimeric heavy chain: VH-CH1-linker-scFv(anti-Psl)-linker-CH2-CH3; The Fab is from 7B1 (anti-PcrV); Optimized variant of STS7B15925
B5: anti-PcrV/anti-Psl bispecific antibody STS7B15921M (bispecific antibody)
heavy: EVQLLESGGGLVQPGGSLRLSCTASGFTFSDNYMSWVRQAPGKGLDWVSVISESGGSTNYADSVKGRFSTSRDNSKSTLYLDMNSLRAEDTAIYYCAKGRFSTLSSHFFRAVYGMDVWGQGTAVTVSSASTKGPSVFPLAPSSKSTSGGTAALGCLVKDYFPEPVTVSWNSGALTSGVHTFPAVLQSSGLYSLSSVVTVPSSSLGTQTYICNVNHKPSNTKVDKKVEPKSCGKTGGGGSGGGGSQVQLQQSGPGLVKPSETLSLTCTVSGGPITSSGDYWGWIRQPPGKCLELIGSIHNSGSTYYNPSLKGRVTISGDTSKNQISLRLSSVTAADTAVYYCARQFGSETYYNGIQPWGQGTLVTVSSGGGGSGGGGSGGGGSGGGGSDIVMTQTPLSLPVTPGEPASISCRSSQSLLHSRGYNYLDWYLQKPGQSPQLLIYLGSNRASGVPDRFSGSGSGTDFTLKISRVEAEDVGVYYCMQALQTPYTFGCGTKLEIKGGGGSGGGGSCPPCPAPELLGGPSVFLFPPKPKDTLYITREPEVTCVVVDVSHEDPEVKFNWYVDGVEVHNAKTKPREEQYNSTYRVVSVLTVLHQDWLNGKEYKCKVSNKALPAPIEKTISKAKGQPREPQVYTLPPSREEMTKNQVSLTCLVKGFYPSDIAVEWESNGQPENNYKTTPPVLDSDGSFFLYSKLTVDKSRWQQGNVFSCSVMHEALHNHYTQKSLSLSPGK
light: B2 light
notes: Chimeric heavy chain: 7B1 VH-CH1-linker-scFv(anti-Psl P5921)-linker-CH2-CH3
B6: anti-PcrV/anti-Psl bispecific antibody STS7B112M (bispecific antibody)
heavy: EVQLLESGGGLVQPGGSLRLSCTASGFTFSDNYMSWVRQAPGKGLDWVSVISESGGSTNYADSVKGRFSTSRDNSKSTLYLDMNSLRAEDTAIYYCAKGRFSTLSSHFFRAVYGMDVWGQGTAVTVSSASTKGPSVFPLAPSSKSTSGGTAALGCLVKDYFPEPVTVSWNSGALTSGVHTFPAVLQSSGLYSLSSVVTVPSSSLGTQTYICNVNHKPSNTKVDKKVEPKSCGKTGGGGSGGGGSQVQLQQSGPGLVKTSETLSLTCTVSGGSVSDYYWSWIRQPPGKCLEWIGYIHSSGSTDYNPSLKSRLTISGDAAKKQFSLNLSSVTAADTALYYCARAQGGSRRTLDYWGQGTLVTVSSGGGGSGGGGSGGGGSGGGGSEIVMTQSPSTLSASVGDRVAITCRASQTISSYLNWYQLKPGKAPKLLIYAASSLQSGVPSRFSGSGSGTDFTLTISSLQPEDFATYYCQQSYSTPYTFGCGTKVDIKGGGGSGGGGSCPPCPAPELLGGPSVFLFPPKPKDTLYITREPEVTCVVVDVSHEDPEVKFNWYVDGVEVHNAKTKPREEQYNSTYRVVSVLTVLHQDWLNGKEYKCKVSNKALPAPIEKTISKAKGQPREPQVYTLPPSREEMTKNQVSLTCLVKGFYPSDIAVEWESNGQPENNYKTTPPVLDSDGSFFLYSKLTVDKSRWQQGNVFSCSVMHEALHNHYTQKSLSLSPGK
light: B2 light
notes: Chimeric heavy chain: 7B1 VH-CH1-linker-scFv(anti-Psl 3F12)-linker-CH2-CH3
B7: anti-PcrV/anti-Psl bispecific antibody STS7B1H924M (bispecific antibody)
heavy: EVQLLESGGGLVQPGGSLRLSCTASGFTFSDNYMSWVRQAPGKGLDWVSVISESGGSTNYADSVKGRFSTSRDNSKSTLYLDMNSLRAEDTAIYYCAKGRFSTLSSHFFRAVYGMDVWGQGTAVTVSSASTKGPSVFPLAPSSKSTSGGTAALGCLVKDYFPEPVTVSWNSGALTSGVHTFPAVLQSSGLYSLSSVVTVPSSSLGTQTYICNVNHKPSNTKVDKKVEPKSCGKTGGGGSGGGGSQVQLVQSGAEVKKPGASVKVSCKASGDTSTIHSVHWVRQAPGQCLEWMGTIISSGTTTTYAQSFQDRVSMTIDRSTSTGYMELSSLRFEDTAVYYCTTDGTSWGQGTLVTVSSGGGGSGGGGSGGGGSGGGGSDIQLTQSPSSVSASVGDRVTIACRASQGISSWLAWYQQKPGKAPKLLIYHASTLESGVPSRFSGSGSGTDFTLTISSLQPEDFATYYCLQASSLPHTFGCGTKLEIKGGGGSGGGGSCPPCPAPELLGGPSVFLFPPKPKDTLYITREPEVTCVVVDVSHEDPEVKFNWYVDGVEVHNAKTKPREEQYNSTYRVVSVLTVLHQDWLNGKEYKCKVSNKALPAPIEKTISKAKGQPREPQVYTLPPSREEMTKNQVSLTCLVKGFYPSDIAVEWESNGQPENNYKTTPPVLDSDGSFFLYSKLTVDKSRWQQGNVFSCSVMHEALHNHYTQKSLSLSPGK
light: B2 light
notes: Chimeric heavy chain: 7B1 VH-CH1-linker-scFv(anti-Psl 7H924)-linker-CH2-CH3
B8: anti-PcrV/anti-Psl bispecific antibody STS7B11201M (bispecific antibody)
heavy: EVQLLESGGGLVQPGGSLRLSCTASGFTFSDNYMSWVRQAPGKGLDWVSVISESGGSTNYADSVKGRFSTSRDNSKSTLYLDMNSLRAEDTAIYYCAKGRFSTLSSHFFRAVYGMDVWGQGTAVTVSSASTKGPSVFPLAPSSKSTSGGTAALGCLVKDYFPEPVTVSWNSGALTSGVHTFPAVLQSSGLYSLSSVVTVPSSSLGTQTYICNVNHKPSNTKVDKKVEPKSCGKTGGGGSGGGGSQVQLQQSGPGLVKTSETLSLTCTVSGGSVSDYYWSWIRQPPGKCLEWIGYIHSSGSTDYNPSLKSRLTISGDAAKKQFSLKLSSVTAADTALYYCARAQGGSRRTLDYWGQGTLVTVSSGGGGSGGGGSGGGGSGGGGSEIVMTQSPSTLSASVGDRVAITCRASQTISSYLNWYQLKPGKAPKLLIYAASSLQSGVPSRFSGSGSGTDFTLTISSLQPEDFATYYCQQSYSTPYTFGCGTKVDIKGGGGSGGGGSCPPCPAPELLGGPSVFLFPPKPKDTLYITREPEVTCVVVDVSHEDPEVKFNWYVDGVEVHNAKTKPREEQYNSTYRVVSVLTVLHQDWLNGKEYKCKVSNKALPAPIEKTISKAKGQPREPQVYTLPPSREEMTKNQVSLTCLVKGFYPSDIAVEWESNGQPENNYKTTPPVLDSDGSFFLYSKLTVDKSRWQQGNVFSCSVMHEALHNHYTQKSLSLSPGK
light: B2 light

Biological target: T1, PcrV protein (Pseudomonas aeruginosa type III secretion system protein) (Pseudomonas aeruginosa)
T1 construct: The ELISA used 'synthetic PcrV' as plate coat; Biacore and BLI used 'PcrV protein' in solution; also called synthetic PcrV; Full-length PcrV
Test: SPR (BIACORE T200), 25 C; antibody captured on CM5 chip, serial dilutions of PcrV protein injected
Protocol: Binding affinity (Kd) of selected bispecific antibodies with respect to PcrV at 25° C. was determined using a real-time biosensor surface plasmon resonance assay (BIACORE™ T200). Briefly, the antibody was first captured on a CM5 chip to form an antibody surface. Serial dilutions of PcrV protein were injected over the antibody surface. Binding of antigen to antibody and dissociation of the bound complex were monitored in real time. Equilibrium dissociation constants (Kd) and dissociation rate constants were ascertained by performing kinetic analysis using BIA evaluation software.

Binder | Kd [nM] | koff [s⁻¹] | kon [M⁻¹ s⁻¹]
B1 | 0.335 | 4.82e-05 | 144000
B2 | 0.265 | 4.52e-05 | 170000
B3 | 0.179 | 3.13e-05 | 174000

Biological target: T1, PcrV protein (Pseudomonas aeruginosa …)
Test: ELISA on plate-coated synthetic PcrV, detection with goat anti-human Fc-AP and pNPP, OD410
Protocol: STS7B15925, STS7B1H9 and STS7B112 were further optimized by introducing variants in the VH, VL, and/or Fc, giving rise to STS7B15925M, STS7B15921M, STS7B1H9M, STS7B1H924M, STS7B112M, and STS7B11201M. For the ELISA experiment, synthetic PcrV or PAO1 was used to coat the wells of a 96-well plate. On the following day, after washing with PBST, blocking with 200 μL PBS-milk for an hour, and another wash with PBST, the respective antibodies were added and incubated for an hour at 37° C. The plate was washed with 0.1% TBST 6 times before 100 μL of Goat-anti-human Fc antibody-AP (1:3000 in PBS) was added to each well and incubated for an hour. After washing with 0.1% TBST for 6 times, 50 μL of pNPP (p-nitrophenyl phosphate) was added to each well and color was developed for […] at 37 C. Subsequently, the colorimetric signals were read by a microplate reader at 410 nm. The ELISA results (OD410) were analyzed and the EC50 values were calculated.

Binder | binding result
B4 | binds
B5 | binds
B6 | binds
B7 | binds
B8 | binds
